The source of these data is article PMC6994669.

The test concerns the target PTPδ D2-His6 F1503A (mouse). Nature of the test: SPR; Biacore T200, 25 °C, 10 mM Hepes-NaOH pH 7.5, 150 mM NaCl, 0.005% Tween-20; wild-type or mutant PTPδ D2-His6 amine-coupled on a CM5 chip; wild-type or mutant Liprin-α3 tSAM injected, twofold dilutions from 40 µM to 39 nM; equilibrium KD.

Chain of mouse Liprin-α3 tSAM (residues 808–1114) (P60469 808-1114): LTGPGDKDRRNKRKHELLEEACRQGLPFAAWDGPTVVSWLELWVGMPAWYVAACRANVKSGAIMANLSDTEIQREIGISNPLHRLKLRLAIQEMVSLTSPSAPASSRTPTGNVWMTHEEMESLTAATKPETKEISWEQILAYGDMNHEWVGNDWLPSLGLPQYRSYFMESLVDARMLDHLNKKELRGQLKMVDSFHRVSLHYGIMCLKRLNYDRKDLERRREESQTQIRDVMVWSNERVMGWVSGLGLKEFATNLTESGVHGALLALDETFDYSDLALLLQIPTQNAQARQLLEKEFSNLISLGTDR

For the substance “mouse Liprin-α3 tSAM (residues 808–1114) (from UniProt P60469 808-1114) (domain or fragment)”, the Kd (usually the concentration at which binding is half-saturated) was found to be 8.3 µM.
